{"source": "patent US20110143963A1", "about": "(UNIVERSITY OF CHICAGO, published 2011)", "binders": {"B1": {"name": "circularly permutated PDZ domain (designed binder)", "chain": "PELGFSISGGVGGRGNPFRPDDDGIFVTRVQPEGPASKLLQPGDKIIQANGYSFINIEHGQAVSLLKTFQNTVELIIVREVGNGAKQEIRVRVEKD", "notes": "The order would be PDZ residues 21 to C-terminus, Asn-Gly, then residues 1-20; also called cpPDZ"}, "B2": {"name": "peptide-PDZ affinity clamp, clone 282-6 (designed binder)", "chain": "GSNFCASNGTGNDCRRPELGFSISGGVGGRGNPFRPDDDGIFVTRVQPEGPASKLLQPGDKIIQANGYSFINIEHGQAVSLLKTFQNTVELIIVREVGNGAKQEIRVRVEKDGG", "modifications": "disulfide-constrained (Cys-constrained) peptide segment"}, "B3": {"name": "fusion protein of cpPDZ and FN3 (starting material) (designed binder)", "chain": "PELGFSISGGVGGRGNPFRPDDDGIFVTRVQPEGPASKLLQPGDKIIQANGYSFINIEHGQAVSLLKTFQNTVELIIVREVGNGAKQEIRVRVEKDGGSGGVSSVPTNLEVVAATPTSLLISWDASSSSVSYYRITYGETGGNSPVQEFTVPGSKSTATISGLKPGVDYTITVYASSSSSSSSSSPISINYRT"}}, "key": {"[1]": {"target": "T1, target motif GGRSWFETWV-COOH", "T1 construct": "also called target peptide", "T1 peptide": "GGRSWFETWV-OH", "experiment": "phage display format and SPR", "procedure": "From visual inspection of the erbin PDZ structure and a sequence alignment of PDZ domains, three potential sites were identified for the new termini in a circularly permutated PDZ domain. Three mutant PDZ domains, in which four Gly residues were inserted in one of the three candidate sites, were assayed for binding to the target motif using the phage display format."}, "[2]": {"target": "T2, SUMO-ARVCF fusion protein (yeast)", "T2 construct": "also called target peptide fused to the yeast SUMO protein; the target", "experiment": "SPR, ratio of Kd"}, "[3]": {"target": "T2, SUMO-ARVCF fusion protein", "experiment": "SPR, equilibrium mode, target peptide fused to yeast SUMO"}, "[4]": {"target": "T3, ARVCF peptide PQPVDSWV-COOH (eight-residue motif corresponding to the ARVCF C-terminus) (not fully specified; printed as PQPVDSWV-COOH)", "T3 construct": "also called ARVCF target peptide; AVFCF peptide", "T3 peptide": "PQPVDSWV-OH", "experiment": "SPR (BIAcore)"}, "[5]": {"target": "T3, ARVCF peptide PQPVDSWV-COOH …", "experiment": "SPR, ratio of Kd"}, "[6]": {"target": "T3, ARVCF peptide PQPVDSWV-COOH …", "experiment": "SPR (error 13500 stands in r16c7)"}}, "note": "Where no end group is shown, it is not given here."}
{"binder": "B1", "values": [{"measurement": "binding result", "setting": "[1]", "result": "binds"}]}
{"binder": "B2", "values": [{"measurement": "fold higher affinity than the parent interaction domain (cpPDZ)", "setting": "[2]", "result": 12, "unit": "fold"}, {"measurement": "Kd", "setting": "[3]", "result": 0.91, "unit": "µM"}]}
{"binder": "B3", "values": [{"measurement": "Kd", "setting": "[4]", "result": 25, "unit": "µM"}, {"measurement": "Affinity Enhancement (Kd of cpPDZFN for ARVCF / Kd of the clamp)", "setting": "[5]", "result": 1, "unit": "fold"}, {"measurement": "Kd", "setting": "[6]", "result": 24.8, "unit": "µM"}]}
